Positions count from the first letter of the chain named. In names and notes the source's numbering stands. Entries after “also recorded” stand apart in the source; their conditions may differ.
B1: SEQ ID NO: 5391: novel, un-annotated target protein (predicted TM protein) carrying a TCGA mutation site, over-expressed from pcDNA3.1 plasmid (protein, listed as Homo sapiens)
chain: LLLLIIWVRVTFMSCSTHREGLQLRYSLLKPARPRTHREEETTPDAPPLRAVTLTVKVCGITPEVRETTNPPEETPDASEHLKEQTLDTPSLRTETPRQFAASFLKAVRPRTHQFWTQKDLSRLRKWQAIYEEGRDSKRWSQVL
B2: SEQ ID NO: 5391_P31L: mutant version of SEQ ID NO: 5391 that contains the TCGA P31L mutation (protein, listed as Homo sapiens)
chain: B1 chain with P31L
B3: SEQ ID NO: 4335: target protein, extracellular transmembrane protein, over-expressed from plasmid (protein, listed as Homo sapiens)
chain: MNLNPRLRLQVISFHPHPKALAVTLLPALTQSLCLCMASCVYSGPKGFLFLFFPQTAQEKHMKNIT
B4: SEQ ID NO: 5392: target protein, extracellular transmembrane protein, over-expressed from plasmid (protein, listed as Homo sapiens)
chain: MVEKSHPSSLPTLPQPLNHCPETYMLLSAAPSGASQLLSTLTLFLKKHRMDIRTISLRMLLSHTGKLAL
B5: SEQ ID NO: 4538: target protein, extracellular transmembrane protein, over-expressed from plasmid (protein, listed as Homo sapiens)
chain: LARLFLRPRGPRSPIIQFRRVTGAAVASQGAGSLSPALLPLAPSPRPRRAGLRGQGPSGEGYHLTWKKMSSLEKKHSNVIVQNSLNIHNR

Key:
[1] = tested on: colon cancer cell line HCT116 cells; experiment: WST-1 cell proliferation assay, transient over-expression in HCT116; assay type: cell-based; conditions: transient over-expression from pcDNA3.1 plasmid with Lipofectamine 3000 in HCT116; WST-1 48 hours after transfection; high serum conditions; vs control
Method: WST-1 assay on HCT-116 to examine their cell viability and growth when transiently over-expressed SEQ ID NO: 5391 using Lipofectamine 3000. After plasmid transfection, cell proliferation was measured 48 hours later using WST-1 assay. Data are presented as the mean±SD of three independent experiments performed in triplicate.
Protein overexpression plasmids encoding Target Proteins or controls were transiently transfected into multiple cell lines. 24 hours later proliferation was measured using WST-1 assay.
(§1) Seed the cells of interest into 96-well plate at a density of 4,000 cells per well in 100 μL of cell culture medium. Incubate the cells in a humidified incubator at 37° C. with 5% CO2 for 24 hours. Dilute the Lipofectamine 3000 (Thermo Fisher) in Opti-MEM medium (Thermo Fisher) to a final concentration of 30 μL/mL. […] Measure the absorbance at 450 nm using a microplate reader. A reference wavelength of 650 nm can be used to correct for background absorbance. Calculate the percentage of viable cells in each well by subtracting the absorbance of the blank (medium only) from the absorbance of each well and expressing the results as a percentage of the control group.

[2] = tested on: lung cancer (A549), liver cancer (HepG2), and colon cancer (HCT-116) cells; experiment: WST-1 cell proliferation assay, transient over-expression in multiple cell lines; assay type: cell-based; conditions: genetic overexpression in multiple cell lines (A549, HepG2, HCT-116); WST-1 48 hours after transfection; vs pcDNA3.1-Myc negative control
Method: FIGS. 2A-2C show analysis of cell viability using the WST-1 assay on lung cancer (A549), liver cancer (HepG2), and colon cancer (HCT-116). Cells were transfected with SEQ ID NO: 4538, SEQ ID NO: 5392, and SEQ ID NO: 4335 individually. pcDNA3.1-Myc tagged was used for negative control. After plasmid transfection, cell proliferation was measured 48 hours later using WST-1 assay. Data are presented as the mean±SD of three independent experiments performed in triplicate. FIG. 2A) WST-1 results in HCT-116 cells. Top: low serum, Bottom: High serum. FIG. 2B) WST-1 results in HepG2 cells. Top: low serum, Bottom: High serum. FIG. 2C) WST-1 results in A549 cells. Top: low serum, Bottom: High serum.
Experimental Design: Protein overexpression plasmids encoding Target Proteins or controls were transiently transfected into multiple cell lines. 24 hours later proliferation was measured using WST-1 assay.
as §1, with “Materials and Methods: Seed” for “Seed”

Row | Molecule | proliferation of colon cancer cells (WST-1 assay) [1] | proliferation of cells (WST-1 assay) [2]
1 | B1 | significantly increases the proliferation; also recorded: increases the proliferation of colon cancer cells | –
2 | B2 | effect on proliferation is significantly more pronounced | –
3 | B3 | – | significantly increases the proliferation
4 | B4 | – | significantly increases the proliferation
5 | B5 | – | significantly increases the proliferation

— patent US20260028677A1, “Compositions and Methods for Modulating Genetic Drivers” (Flagship Pioneering Innovations VII, LLC, priority 2022, published 2026)
